Experimental data taken from patent publication US20240261333A1, “NOVEL TARGETS FOR ENHANCING ANTI-TUMOR IMMUNITY” (THE BROAD INSTITUTE, INC., priority 2021, published 2024).

Legend:
Assay in all cases: control IP with IgG, lysate of cells with C-FLAG B3GNT2, mass spectrometry
CCT3 (human) = CCT3 (human) (UniProt P49368)
DDX1 (human) = DDX1 (human) (UniProt Q92499)
DHX9 (human) = DHX9 (human) (UniProt Q08211)
EIF3A (human) = EIF3A (human) (UniProt Q14152)
EMILIN1 (human) = EMILIN1 (human) (UniProt Q9Y6C2)
FLG (human) = FLG (human) (UniProt P20930)
HNRNPM (human) = HNRNPM (human) (UniProt P52272)
IL13RA2 (human) = IL13RA2 (human) (UniProt Q14627)
IMMT (human) = IMMT (human) (UniProt Q16891)
LCN1 (human) = LCN1 (human) (UniProt P31025)
LGALS7B (human) = LGALS7B (human) (UniProt P47929)
MAP4 (human) = MAP4 (human) (UniProt P27816)
PKM (human) = PKM (human) (UniProt P14618)
PPFIBP1 (human) = PPFIBP1 (human) (UniProt Q86W92)
RACK1 (human) = RACK1 (human) (UniProt P63244)
RHOT2 (human) = RHOT2 (human) (UniProt Q8IXI1)
RPL23 (human) = RPL23 (human) (UniProt P62829)
RPL38 (human) = RPL38 (human) (UniProt P63173)
RPL7 (human) = RPL7 (human) (UniProt P18124)
RPL8 (human) = RPL8 (human) (UniProt P62917)
RPS26 (human) = RPS26 (human) (UniProt P62854)
RPS27A (human) = RPS27A (human) (UniProt P62979)
S100A7 (human) = S100A7 (human) (UniProt P31151)
SERPINB3 (human) = SERPINB3 (human) (UniProt P29508)
SYNCRIP (human) = SYNCRIP (human) (UniProt O60506)
SYNM (human) = SYNM (human) (UniProt O15061)
SYNPO (human) = SYNPO (human) (UniProt Q8N3V7)
TBL2 (human) = TBL2 (human) (UniProt Q9Y4P3)
TELO2 (human) = TELO2 (human) (UniProt Q9Y4R8)
TPM3 (human) = TPM3 (human) (UniProt P06753)
YBX1 (human) = YBX1 (human) (UniProt P67809)
YTHDF2 (human) = target: T1, YTHDF2 (human) (UniProt Q9Y5A9)
T1 sequence (looked up): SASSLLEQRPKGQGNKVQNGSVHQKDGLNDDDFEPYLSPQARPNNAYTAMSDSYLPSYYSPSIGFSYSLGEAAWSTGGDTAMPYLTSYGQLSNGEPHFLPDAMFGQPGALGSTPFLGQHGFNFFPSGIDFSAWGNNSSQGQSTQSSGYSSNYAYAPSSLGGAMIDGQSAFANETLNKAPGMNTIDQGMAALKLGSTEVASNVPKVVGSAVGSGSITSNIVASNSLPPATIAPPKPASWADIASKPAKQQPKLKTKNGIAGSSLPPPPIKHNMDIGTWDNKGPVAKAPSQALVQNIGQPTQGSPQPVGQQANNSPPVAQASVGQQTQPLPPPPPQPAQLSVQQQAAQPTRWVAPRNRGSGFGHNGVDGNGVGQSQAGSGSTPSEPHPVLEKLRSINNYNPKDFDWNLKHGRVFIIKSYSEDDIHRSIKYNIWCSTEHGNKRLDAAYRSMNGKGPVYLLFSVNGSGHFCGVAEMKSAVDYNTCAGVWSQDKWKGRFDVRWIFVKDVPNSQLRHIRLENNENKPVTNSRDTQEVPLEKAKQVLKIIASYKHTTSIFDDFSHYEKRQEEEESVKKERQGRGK

Sequence of TELO2 (human) (Q9Y4R8 whole entry): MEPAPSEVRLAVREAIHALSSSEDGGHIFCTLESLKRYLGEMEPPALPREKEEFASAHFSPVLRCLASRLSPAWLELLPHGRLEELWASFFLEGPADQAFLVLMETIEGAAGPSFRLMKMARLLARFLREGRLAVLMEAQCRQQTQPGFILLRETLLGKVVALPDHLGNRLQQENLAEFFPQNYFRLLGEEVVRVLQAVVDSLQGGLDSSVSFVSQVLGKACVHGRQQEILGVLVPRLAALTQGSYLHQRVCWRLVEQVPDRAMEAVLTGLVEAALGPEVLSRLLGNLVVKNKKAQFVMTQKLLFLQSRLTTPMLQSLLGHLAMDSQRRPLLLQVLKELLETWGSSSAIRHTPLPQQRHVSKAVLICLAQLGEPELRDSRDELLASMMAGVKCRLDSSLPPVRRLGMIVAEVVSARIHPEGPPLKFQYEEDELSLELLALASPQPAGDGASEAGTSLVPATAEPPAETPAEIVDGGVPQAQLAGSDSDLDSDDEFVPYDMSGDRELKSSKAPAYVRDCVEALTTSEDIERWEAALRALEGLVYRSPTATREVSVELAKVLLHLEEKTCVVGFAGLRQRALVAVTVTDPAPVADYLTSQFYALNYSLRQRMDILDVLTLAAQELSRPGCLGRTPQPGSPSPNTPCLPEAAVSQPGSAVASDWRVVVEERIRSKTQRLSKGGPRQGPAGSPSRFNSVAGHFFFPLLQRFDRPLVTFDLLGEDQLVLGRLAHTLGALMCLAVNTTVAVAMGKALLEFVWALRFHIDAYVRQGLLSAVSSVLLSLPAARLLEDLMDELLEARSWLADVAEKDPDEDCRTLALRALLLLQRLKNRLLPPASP
Sequence of RHOT2 (human) (Q8IXI1 whole entry): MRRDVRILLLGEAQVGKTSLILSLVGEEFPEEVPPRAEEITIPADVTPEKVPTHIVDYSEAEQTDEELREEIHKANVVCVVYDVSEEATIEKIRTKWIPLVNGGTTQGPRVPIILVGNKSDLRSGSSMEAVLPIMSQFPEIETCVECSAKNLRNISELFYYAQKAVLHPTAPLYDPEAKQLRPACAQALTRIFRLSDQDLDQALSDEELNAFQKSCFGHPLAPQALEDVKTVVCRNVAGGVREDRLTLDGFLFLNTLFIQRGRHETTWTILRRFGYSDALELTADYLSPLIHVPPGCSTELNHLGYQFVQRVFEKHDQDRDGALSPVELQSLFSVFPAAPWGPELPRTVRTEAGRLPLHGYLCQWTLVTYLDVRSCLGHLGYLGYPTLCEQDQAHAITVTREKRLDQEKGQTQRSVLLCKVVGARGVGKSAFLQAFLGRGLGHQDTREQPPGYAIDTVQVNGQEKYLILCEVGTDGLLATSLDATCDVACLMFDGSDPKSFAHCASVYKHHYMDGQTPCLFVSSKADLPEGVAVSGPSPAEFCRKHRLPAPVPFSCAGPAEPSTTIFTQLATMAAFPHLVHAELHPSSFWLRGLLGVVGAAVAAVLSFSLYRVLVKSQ
Sequence of IL13RA2 (human) (Q14627 27-380 limits assumed): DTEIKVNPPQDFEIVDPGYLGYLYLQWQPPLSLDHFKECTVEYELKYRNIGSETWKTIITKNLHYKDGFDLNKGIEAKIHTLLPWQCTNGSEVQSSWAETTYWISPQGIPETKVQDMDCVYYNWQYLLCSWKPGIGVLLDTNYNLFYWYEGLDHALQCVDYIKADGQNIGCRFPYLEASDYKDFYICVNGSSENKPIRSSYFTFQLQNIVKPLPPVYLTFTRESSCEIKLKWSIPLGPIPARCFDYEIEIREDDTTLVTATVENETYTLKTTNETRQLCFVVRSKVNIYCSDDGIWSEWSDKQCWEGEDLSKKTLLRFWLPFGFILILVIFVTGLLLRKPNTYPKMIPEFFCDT
Sequence of SERPINB3 (human) (P29508 whole entry): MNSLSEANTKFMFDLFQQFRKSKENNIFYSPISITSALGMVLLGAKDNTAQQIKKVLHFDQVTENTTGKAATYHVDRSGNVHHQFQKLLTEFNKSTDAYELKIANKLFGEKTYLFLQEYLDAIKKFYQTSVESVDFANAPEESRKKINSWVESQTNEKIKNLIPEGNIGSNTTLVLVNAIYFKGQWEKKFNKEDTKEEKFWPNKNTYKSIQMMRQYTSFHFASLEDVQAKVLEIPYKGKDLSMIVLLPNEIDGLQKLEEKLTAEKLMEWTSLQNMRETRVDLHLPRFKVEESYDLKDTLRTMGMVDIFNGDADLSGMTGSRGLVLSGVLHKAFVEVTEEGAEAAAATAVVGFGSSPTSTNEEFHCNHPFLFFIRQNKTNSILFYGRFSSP
Sequence of LGALS7B (human) (P47929 whole entry): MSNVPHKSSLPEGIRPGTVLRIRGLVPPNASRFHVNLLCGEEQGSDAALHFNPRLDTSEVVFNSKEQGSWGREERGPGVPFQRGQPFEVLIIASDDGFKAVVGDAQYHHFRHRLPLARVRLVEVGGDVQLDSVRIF
Sequence of PPFIBP1 (human) (Q86W92 other isoform, or with tags, fused parts or gaps limits assumed): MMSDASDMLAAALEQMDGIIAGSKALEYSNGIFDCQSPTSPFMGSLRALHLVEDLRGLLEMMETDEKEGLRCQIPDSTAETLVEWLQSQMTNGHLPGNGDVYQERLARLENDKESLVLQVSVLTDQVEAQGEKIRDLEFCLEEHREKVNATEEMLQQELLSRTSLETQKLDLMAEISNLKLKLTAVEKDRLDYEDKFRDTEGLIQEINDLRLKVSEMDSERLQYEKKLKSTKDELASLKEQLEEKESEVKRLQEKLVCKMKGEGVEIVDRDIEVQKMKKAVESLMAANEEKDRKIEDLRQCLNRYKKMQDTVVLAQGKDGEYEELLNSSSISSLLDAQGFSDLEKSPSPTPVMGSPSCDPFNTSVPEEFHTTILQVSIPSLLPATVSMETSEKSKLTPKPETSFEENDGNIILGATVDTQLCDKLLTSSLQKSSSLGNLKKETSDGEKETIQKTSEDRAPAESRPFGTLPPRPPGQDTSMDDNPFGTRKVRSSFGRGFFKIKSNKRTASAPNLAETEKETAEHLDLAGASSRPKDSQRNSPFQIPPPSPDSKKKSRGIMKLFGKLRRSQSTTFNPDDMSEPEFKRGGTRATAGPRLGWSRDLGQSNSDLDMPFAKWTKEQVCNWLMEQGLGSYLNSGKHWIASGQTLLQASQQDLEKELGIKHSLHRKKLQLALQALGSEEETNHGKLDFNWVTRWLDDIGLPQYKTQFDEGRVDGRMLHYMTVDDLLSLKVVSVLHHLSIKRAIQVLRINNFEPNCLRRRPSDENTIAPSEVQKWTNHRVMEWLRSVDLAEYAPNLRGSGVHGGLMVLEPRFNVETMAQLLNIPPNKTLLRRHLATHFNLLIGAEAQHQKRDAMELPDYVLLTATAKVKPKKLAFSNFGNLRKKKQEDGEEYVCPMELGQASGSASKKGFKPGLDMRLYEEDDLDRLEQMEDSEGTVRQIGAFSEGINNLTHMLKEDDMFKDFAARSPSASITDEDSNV
Sequence of PKM (human) (P14618 2-531 limits assumed): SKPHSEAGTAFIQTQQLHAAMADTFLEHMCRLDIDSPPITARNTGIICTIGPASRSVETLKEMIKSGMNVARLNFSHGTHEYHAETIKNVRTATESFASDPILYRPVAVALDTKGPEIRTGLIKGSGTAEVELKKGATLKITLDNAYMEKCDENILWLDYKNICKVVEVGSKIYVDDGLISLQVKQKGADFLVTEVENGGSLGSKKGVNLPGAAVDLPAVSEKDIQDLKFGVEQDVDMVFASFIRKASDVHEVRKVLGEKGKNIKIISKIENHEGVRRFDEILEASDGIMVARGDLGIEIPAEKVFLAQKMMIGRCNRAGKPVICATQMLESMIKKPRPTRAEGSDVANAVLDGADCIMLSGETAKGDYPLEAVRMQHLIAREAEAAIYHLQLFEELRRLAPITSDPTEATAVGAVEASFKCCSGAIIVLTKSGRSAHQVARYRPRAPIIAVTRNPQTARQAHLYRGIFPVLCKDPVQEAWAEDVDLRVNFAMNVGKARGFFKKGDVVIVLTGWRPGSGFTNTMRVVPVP
Sequence of CCT3 (human) (P49368 whole entry): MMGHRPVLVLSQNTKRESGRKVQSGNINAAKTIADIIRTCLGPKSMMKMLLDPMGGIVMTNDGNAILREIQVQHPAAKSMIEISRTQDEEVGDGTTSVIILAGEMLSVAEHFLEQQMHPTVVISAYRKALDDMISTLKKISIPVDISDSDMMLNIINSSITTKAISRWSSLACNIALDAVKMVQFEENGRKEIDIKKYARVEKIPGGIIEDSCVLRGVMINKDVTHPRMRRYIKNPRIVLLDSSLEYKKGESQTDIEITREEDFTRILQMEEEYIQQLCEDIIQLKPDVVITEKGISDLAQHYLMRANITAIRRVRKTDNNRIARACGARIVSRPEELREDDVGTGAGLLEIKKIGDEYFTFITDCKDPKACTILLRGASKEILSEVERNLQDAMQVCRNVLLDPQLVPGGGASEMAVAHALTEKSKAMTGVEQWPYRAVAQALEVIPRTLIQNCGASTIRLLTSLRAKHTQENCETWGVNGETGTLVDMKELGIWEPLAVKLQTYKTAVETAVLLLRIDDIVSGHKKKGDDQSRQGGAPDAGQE
Sequence of TPM3 (human) (P06753 other isoform, or with tags, fused parts or gaps limits assumed): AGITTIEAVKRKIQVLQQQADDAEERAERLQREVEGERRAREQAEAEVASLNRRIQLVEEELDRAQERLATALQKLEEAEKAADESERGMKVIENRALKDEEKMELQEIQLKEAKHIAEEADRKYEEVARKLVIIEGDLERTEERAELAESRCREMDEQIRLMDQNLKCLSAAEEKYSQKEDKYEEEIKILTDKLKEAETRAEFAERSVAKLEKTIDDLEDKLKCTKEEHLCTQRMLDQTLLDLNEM
Sequence of S100A7 (human) (P31151 2-101 limits assumed): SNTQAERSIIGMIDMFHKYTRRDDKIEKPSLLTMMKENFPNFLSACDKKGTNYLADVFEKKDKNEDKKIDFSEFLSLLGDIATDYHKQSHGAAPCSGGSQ

## IgG control (Millipore Sigma 12-371) (antibody)
CCT3 (human)
  co-IP mass spectrometry count: 0
DDX1 (human)
  co-IP mass spectrometry count: 5
DHX9 (human)
  co-IP mass spectrometry count: 0
EIF3A (human)
  co-IP mass spectrometry count: 0
EMILIN1 (human)
  co-IP mass spectrometry count: 0
FLG (human)
  co-IP mass spectrometry count: 15
HNRNPM (human)
  co-IP mass spectrometry count: 5
IL13RA2 (human)
  co-IP mass spectrometry count: 0
IMMT (human)
  co-IP mass spectrometry count: 16
LCN1 (human)
  co-IP mass spectrometry count: 6
LGALS7B (human)
  co-IP mass spectrometry count: 3
MAP4 (human)
  co-IP mass spectrometry count: 0
PKM (human)
  co-IP mass spectrometry count: 2
PPFIBP1 (human)
  co-IP mass spectrometry count: 0
RACK1 (human)
  co-IP mass spectrometry count: 0
RHOT2 (human)
  co-IP mass spectrometry count: 0
RPL23 (human)
  co-IP mass spectrometry count: 4
RPL38 (human)
  co-IP mass spectrometry count: 6
RPL7 (human)
  co-IP mass spectrometry count: 3
RPL8 (human)
  co-IP mass spectrometry count: 3
RPS26 (human)
  co-IP mass spectrometry count: 0
RPS27A (human)
  co-IP mass spectrometry count: 14
S100A7 (human)
  co-IP mass spectrometry count: 3
SERPINB3 (human)
  co-IP mass spectrometry count: 2
SYNCRIP (human)
  co-IP mass spectrometry count: 4
SYNM (human)
  co-IP mass spectrometry count: 2
SYNPO (human)
  co-IP mass spectrometry count: 4
TBL2 (human)
  co-IP mass spectrometry count: 0
TELO2 (human)
  co-IP mass spectrometry count: 0
TPM3 (human)
  co-IP mass spectrometry count: 2
YBX1 (human)
  co-IP mass spectrometry count: 5
YTHDF2 (human)
  co-IP mass spectrometry count: 2
